B1: GpH7-A5/GpH7-B3 variant K334_01G/GpL16-k0 (antibody, human IgG1, kappa)
heavy 1: not shown
heavy 2: not shown
light: DIVMTQSPLSLPVTPGEPASISCQASESLVHSNRNTYLHWYLQKPGQSPQLLIYKVSNRFSGVPDRFSGSGSGTDFTLKISRVEAEDVGVYYCSQNTHVPPTFGQGTKVEIERTVAAPSVFIFPPSDEQLKSGTASVVCLLNNFYPREAKVQWKVDNALQSGNSQESVTEQDSKDSTYSLSSTLTLSKADYEKHKVYACEVTHQGLSSPVTKSFNRGEC
notes: heterodimerized antibody, mutation in one H chain only; also called K334_01G He Ab
B2: GpH7-A5/GpH7-B3 variant K334_15Y/GpL16-k0 (antibody, human IgG1, kappa)
heavy 1: not shown
heavy 2: not shown
light: B1 light
notes: heterodimerized antibody, mutation in one H chain only; also called K334_15Y He Ab
B3: GpH7-A5/GpH7-B3 variant K334_03V/GpL16-k0 (antibody, human IgG1, kappa)
heavy 1: not shown
heavy 2: not shown
light: B1 light
notes: heterodimerized antibody, mutation in one H chain only; also called K334_03V He Ab
B4: GpH7-A5/GpH7-B3 variant K326_06M/GpL16-k0 (antibody, human IgG1, kappa)
heavy 1: not shown
heavy 2: not shown
light: B1 light
notes: heterodimerized antibody, mutation in one H chain only; also called K326_06M He Ab
B5: GpH7-A5/GpH7-B3 variant K334_16H/GpL16-k0 (antibody, human IgG1, kappa)
heavy 1: not shown
heavy 2: not shown
light: B1 light
notes: heterodimerized antibody, mutation in one H chain only; also called K334_16H He Ab
B6: GpH7-A5/GpH7-B3 variant L328_15Y/GpL16-k0 (antibody, human IgG1, kappa)
heavy 1: not shown
heavy 2: not shown
light: B1 light
notes: heterodimerized antibody, mutation in one H chain only; also called L328_15Y He Ab
B7: GpH7-A5/GpH7-B3 variant P271_08L/GpL16-k0 (antibody, human IgG1, kappa)
heavy 1: not shown
heavy 2: not shown
light: B1 light
notes: heterodimerized antibody, mutation in one H chain only; also called P271_08L He Ab
B8: GpH7-A5/GpH7-B3 variant S267_18N/GpL16-k0 (antibody, human IgG1, kappa)
heavy 1: not shown
heavy 2: not shown
light: B1 light
notes: heterodimerized antibody, mutation in one H chain only; also called S267_18N He Ab
B9: GpH7-A5/GpH7-B3 variant K326_10E/GpL16-k0 (antibody, human IgG1, kappa)
heavy 1: not shown
heavy 2: not shown
light: B1 light
notes: heterodimerized antibody, mutation in one H chain only; also called K326_10E He Ab
B10: GpH7-A5/GpH7-B3 variant P271_18N/GpL16-k0 (antibody, human IgG1, kappa)
heavy 1: not shown
heavy 2: not shown
light: B1 light
notes: heterodimerized antibody, mutation in one H chain only; also called P271_18N He Ab
B11: GpH7-A5/GpH7-B3 variant K334_07I/GpL16-k0 (antibody, human IgG1, kappa)
heavy 1: not shown
heavy 2: not shown
light: B1 light
notes: heterodimerized antibody, mutation in one H chain only; also called K334_07I He Ab
B12: GpH7-A5/GpH7-B3 variant K334_19Q/GpL16-k0 (antibody, human IgG1, kappa)
heavy 1: not shown
heavy 2: not shown
light: B1 light
notes: heterodimerized antibody, mutation in one H chain only; also called K334_19Q He Ab
B13: GpH7-A5/GpH7-B3 variant S267_10E/GpL16-k0 (antibody, human IgG1, kappa)
heavy 1: not shown
heavy 2: not shown
light: B1 light
notes: heterodimerized antibody, mutation in one H chain only; also called S267_10E He Ab
B14: GpH7-A5/GpH7-B3 variant K326_04F/GpL16-k0 (antibody, human IgG1, kappa)
heavy 1: not shown
heavy 2: not shown
light: B1 light
notes: heterodimerized antibody, mutation in one H chain only; also called K326_04F He Ab
B15: GpH7-A5/GpH7-B3 variant Y296_07I/GpL16-k0 (antibody, human IgG1, kappa)
heavy 1: not shown
heavy 2: not shown
light: B1 light
notes: heterodimerized antibody, mutation in one H chain only; also called Y296_07I He Ab
B16: GpH7-A5/GpH7-B3 variant S337_18N/GpL16-k0 (antibody, human IgG1, kappa)
heavy 1: not shown
heavy 2: not shown
light: B1 light
notes: heterodimerized antibody, mutation in one H chain only; also called S337_18N He Ab
B17: GpH7-A5/GpH7-B3 variant P271_19Q/GpL16-k0 (antibody, human IgG1, kappa)
heavy 1: not shown
heavy 2: not shown
light: B1 light
notes: heterodimerized antibody, mutation in one H chain only; also called P271_19Q He Ab
B18: GpH7-A5/GpH7-B3 variant T335_01G/GpL16-k0 (antibody, human IgG1, kappa)
heavy 1: not shown
heavy 2: not shown
light: B1 light
notes: heterodimerized antibody, mutation in one H chain only; also called T335_01G He Ab
B19: GpH7-A5/GpH7-B3 variant I336_16H/GpL16-k0 (antibody, human IgG1, kappa)
heavy 1: not shown
heavy 2: not shown
light: B1 light
notes: heterodimerized antibody, mutation in one H chain only; also called I336_16H He Ab
B20: GpH7-A5/GpH7-B3 variant Y296_03V/GpL16-k0 (antibody, human IgG1, kappa)
heavy 1: not shown
heavy 2: not shown
light: B1 light
notes: heterodimerized antibody, mutation in one H chain only; also called Y296_03V He Ab
B21: GpH7-A5/GpH7-B3 variant K334_05P/GpL16-k0 (antibody, human IgG1, kappa)
heavy 1: not shown
heavy 2: not shown
light: B1 light
notes: heterodimerized antibody, mutation in one H chain only; also called K334_05P He Ab
B22: GpH7-A5/GpH7-B3 variant T335_02A/GpL16-k0 (antibody, human IgG1, kappa)
heavy 1: not shown
heavy 2: not shown
light: B1 light
notes: heterodimerized antibody, mutation in one H chain only; also called T335_02A He Ab
B23: GpH7-A5/GpH7-B3 variant T335_13S/GpL16-k0 (antibody, human IgG1, kappa)
heavy 1: not shown
heavy 2: not shown
light: B1 light
notes: heterodimerized antibody, mutation in one H chain only; also called T335_13S He Ab
B24: GpH7-A5/GpH7-B3 variant P271_01G/GpL16-k0 (antibody, human IgG1, kappa)
heavy 1: not shown
heavy 2: not shown
light: B1 light
notes: heterodimerized antibody, mutation in one H chain only; also called P271_01G He Ab
B25: GpH7-A5/GpH7-B3 variant Y296_02A/GpL16-k0 (antibody, human IgG1, kappa)
heavy 1: not shown
heavy 2: not shown
light: B1 light
notes: heterodimerized antibody, mutation in one H chain only; also called Y296_02A He Ab
B26: GpH7-A5/GpH7-B3 variant K334_09D/GpL16-k0 (antibody, human IgG1, kappa)
heavy 1: not shown
heavy 2: not shown
light: B1 light
notes: heterodimerized antibody, mutation in one H chain only; also called K334_09D He Ab
B27: GpH7-A5/GpH7-B3 variant S267_06M/GpL16-k0 (antibody, human IgG1, kappa)
heavy 1: not shown
heavy 2: not shown
light: B1 light
notes: heterodimerized antibody, mutation in one H chain only; also called S267_06M He Ab
B28: GpH7-A5/GpH7-B3 variant P271_10E/GpL16-k0 (antibody, human IgG1, kappa)
heavy 1: not shown
heavy 2: not shown
light: B1 light
notes: heterodimerized antibody, mutation in one H chain only; also called P271_10E He Ab
B29: GpH7-A5/GpH7-B3 variant S337_16H/GpL16-k0 (antibody, human IgG1, kappa)
heavy 1: not shown
heavy 2: not shown
light: B1 light
notes: heterodimerized antibody, mutation in one H chain only; also called S337_16H He Ab

biological target: T1, FcγRIa extracellular domain with C-terminal His tag (human, UniProt P12314 16-292); assay: SPR (Biacore), relative FcγRIa binding, GpH7-A5/GpH7-B3/GpL16-k0 (HeCon Ab) = 100
T1 construct: extracellular domain; soluble analyte in Biacore; also called FcgRI; CD64
T1 sequence (P12314 16-292): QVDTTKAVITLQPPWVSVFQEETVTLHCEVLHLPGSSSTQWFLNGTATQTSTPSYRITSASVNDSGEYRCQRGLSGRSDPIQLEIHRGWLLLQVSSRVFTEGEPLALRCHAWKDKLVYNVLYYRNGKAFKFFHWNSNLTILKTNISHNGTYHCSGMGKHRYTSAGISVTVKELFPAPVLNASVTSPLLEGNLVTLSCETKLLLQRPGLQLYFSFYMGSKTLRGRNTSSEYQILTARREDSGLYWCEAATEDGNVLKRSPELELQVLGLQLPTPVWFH

Row | He/Con_1a | Binder
1 | 104 % of control | B1
2 | 105 % of control | B2
3 | 105 % of control | B3
4 | 102 % of control | B4
5 | 105 % of control | B5
6 | 102 % of control | B6
7 | 102 % of control | B7
8 | 102 % of control | B8
9 | 104 % of control | B9
10 | 103 % of control | B10
11 | 104 % of control | B11
12 | 106 % of control | B12
13 | 106 % of control | B13
14 | 102 % of control | B14
15 | 104 % of control | B15
16 | 105 % of control | B16
17 | 103 % of control | B17
18 | 104 % of control | B18
19 | 101 % of control | B19
20 | 104 % of control | B20
21 | 104 % of control | B21
22 | 103 % of control | B22
23 | 105 % of control | B23
24 | 105 % of control | B24
25 | 103 % of control | B25
26 | 106 % of control | B26
27 | 106 % of control | B27
28 | 103 % of control | B28
29 | 105 % of control | B29
